Results on eight sequences are retold here after the supplement of paper PMC10065799, “High-throughput profiling of sequence recognition by tyrosine kinases and SH2 domains using bacterial peptide display” (eLife, 2023).

Data set [1] addresses Fes (UniProt P07332). The data set is described as follows: phosphorylation enrichment, bacterial display (enrichment ratio); higher = better substrate or ligand; peptides without Tyr show the background.
In data set [2] the target is EPHB2 (UniProt P29323). Described as above.
For data set [3], the system named is AncSZ. The data set is described as above.
Data set [4] deals with Fer (mouse). Described as above.
Data set [5] addresses MERTK (UniProt Q12866). The data set is described as above.
Data set [6] relates to c-Src. Described as above.
The target of data set [7] is FGFR1 (UniProt P11362). The data set is described as above.
In data set [8] the target is Fyn (UniProt P06241). The description is as above.
For data set [9], the system named is c-Abl (mouse). The data set is described as above.
Data set [10] addresses FGFR3 (UniProt P22607). Described as above.
The target in data set [11] is Hck (UniProt P08631). The data set is described as above.
Data set [12] addresses Jak2 (UniProt O60674). The description is as above.
The target in data set [13] is EPHB1 (UniProt P54762). The data set is described as above.
The target in data set [14] is Grb2 SH2 (UniProt P62993). The data set is described as follows: SH2 binding enrichment of the phosphorylated peptide, bacterial display (enrichment ratio); higher = better substrate or ligand; peptides without Tyr show the background.
For data set [15], the target named is c-Src SH2. The description is as above.
For data set [16], the target named is SHP2-C SH2. The description is as above.
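Throughout, for SH2 binding enrichment of the phosphorylated peptide, bacterial display: peptide library displayed on the E. coli surface as eCPX fusions, selected cells deep-sequenced, score is each peptide's frequency after selection divided by its frequency in the input.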
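Throughout, for phosphorylation enrichment, bacterial display: 11-residue human phosphosite peptides and single-mutation variants displayed on the E. coli surface, counted by deep sequencing, each peptide's frequency after selection divided by its frequency in the unselected input library; frequency after pTyr selection over input frequency; kinase dosed for 20-30% of maximal phosphorylation in three min.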

Chain of Fes (P07332 whole entry, looked up): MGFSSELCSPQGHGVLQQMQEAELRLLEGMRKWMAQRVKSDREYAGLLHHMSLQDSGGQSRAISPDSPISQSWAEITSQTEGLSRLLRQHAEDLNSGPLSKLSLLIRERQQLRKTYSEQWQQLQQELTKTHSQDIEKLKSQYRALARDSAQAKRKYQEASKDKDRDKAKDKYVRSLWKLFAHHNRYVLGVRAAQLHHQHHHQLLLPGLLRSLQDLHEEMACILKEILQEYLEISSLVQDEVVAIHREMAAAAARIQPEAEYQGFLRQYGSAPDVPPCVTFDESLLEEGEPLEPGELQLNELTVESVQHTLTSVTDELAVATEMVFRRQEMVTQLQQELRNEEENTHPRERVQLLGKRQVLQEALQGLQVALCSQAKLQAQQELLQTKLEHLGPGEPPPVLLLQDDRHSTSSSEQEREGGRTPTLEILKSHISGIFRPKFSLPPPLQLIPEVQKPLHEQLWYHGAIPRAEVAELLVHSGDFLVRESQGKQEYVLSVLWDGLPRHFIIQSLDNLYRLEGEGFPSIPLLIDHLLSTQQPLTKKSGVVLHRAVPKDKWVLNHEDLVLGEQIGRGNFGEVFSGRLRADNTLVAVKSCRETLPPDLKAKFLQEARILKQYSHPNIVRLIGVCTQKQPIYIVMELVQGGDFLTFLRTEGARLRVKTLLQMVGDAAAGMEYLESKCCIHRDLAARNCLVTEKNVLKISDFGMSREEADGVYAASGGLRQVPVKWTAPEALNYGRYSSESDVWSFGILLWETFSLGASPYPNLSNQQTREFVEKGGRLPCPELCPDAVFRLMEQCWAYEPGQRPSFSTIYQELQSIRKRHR
Chain of EPHB1 (P54762 whole entry, looked up): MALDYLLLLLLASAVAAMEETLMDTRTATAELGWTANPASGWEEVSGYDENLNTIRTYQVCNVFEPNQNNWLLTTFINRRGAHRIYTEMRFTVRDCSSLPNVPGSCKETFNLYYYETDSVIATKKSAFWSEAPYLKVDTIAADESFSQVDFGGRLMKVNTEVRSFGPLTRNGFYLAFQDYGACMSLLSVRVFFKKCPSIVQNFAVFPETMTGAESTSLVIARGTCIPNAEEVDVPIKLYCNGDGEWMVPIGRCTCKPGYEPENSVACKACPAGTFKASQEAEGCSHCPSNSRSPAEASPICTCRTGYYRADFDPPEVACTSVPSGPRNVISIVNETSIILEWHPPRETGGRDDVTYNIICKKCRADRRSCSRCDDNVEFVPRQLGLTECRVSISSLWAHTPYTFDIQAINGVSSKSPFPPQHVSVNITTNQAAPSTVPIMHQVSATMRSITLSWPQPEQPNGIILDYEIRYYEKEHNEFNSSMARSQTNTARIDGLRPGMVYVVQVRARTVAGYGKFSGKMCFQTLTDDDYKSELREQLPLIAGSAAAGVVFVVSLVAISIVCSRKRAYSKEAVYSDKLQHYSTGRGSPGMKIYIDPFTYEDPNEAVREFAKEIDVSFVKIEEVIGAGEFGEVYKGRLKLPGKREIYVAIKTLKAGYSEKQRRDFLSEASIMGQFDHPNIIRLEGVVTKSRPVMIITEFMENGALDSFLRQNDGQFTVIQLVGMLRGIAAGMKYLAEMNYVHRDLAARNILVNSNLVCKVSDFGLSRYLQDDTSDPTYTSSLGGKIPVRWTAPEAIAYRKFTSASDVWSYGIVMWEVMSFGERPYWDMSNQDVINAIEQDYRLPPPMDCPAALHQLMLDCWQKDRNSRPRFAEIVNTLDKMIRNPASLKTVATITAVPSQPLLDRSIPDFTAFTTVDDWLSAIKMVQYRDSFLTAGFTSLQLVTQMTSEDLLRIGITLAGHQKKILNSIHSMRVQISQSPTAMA
Chain of Jak2 (O60674 whole entry, looked up): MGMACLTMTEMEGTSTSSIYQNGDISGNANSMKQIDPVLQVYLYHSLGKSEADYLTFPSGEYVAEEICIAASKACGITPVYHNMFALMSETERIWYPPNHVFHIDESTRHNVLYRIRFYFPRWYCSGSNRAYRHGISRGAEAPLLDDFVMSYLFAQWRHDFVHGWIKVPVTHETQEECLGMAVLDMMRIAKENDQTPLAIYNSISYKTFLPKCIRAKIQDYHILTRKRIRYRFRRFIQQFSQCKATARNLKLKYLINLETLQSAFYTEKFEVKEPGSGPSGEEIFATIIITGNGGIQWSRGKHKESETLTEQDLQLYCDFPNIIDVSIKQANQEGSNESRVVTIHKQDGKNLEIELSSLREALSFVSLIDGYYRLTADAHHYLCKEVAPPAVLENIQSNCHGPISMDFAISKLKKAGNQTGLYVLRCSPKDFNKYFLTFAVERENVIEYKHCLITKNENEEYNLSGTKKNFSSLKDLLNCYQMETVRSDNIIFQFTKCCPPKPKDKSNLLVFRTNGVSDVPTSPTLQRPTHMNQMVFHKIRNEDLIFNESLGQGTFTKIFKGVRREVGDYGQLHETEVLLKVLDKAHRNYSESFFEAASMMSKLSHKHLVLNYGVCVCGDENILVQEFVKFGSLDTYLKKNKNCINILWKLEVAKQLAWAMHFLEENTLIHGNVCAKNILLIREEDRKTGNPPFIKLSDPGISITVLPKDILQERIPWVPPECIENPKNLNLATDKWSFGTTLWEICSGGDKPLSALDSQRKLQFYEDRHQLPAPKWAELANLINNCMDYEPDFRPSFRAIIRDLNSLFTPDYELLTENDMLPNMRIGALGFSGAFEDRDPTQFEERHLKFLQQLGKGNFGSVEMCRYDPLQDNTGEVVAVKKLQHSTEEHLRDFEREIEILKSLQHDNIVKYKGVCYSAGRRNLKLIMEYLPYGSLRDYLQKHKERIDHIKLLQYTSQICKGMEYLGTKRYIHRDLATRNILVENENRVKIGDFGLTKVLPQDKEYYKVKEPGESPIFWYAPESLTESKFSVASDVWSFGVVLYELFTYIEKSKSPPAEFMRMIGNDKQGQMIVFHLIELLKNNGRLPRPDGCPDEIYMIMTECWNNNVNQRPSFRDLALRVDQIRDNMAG
Chain of FGFR3 (P22607 whole entry, looked up): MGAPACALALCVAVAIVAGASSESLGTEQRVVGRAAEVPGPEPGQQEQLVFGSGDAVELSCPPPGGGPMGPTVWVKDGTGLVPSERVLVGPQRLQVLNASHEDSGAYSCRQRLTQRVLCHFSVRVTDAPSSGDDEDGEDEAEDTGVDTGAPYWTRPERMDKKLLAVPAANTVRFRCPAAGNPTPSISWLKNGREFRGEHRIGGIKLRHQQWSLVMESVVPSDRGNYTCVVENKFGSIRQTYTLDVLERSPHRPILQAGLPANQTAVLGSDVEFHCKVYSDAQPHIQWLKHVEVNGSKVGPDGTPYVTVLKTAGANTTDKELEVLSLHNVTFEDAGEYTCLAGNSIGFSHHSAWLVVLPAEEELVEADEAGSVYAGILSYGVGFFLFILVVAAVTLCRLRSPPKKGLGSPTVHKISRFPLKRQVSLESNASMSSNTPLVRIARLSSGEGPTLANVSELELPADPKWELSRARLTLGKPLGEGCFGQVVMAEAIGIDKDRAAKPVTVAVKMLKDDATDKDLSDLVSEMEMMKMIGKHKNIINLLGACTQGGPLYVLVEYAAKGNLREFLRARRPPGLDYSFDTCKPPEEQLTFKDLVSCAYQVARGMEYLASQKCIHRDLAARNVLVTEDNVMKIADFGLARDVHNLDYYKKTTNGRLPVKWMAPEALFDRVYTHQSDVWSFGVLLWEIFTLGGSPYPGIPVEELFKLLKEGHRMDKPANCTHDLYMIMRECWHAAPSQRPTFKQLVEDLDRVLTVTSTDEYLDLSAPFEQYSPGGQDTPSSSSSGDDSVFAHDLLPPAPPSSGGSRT
Chain of Hck (P08631 whole entry, looked up): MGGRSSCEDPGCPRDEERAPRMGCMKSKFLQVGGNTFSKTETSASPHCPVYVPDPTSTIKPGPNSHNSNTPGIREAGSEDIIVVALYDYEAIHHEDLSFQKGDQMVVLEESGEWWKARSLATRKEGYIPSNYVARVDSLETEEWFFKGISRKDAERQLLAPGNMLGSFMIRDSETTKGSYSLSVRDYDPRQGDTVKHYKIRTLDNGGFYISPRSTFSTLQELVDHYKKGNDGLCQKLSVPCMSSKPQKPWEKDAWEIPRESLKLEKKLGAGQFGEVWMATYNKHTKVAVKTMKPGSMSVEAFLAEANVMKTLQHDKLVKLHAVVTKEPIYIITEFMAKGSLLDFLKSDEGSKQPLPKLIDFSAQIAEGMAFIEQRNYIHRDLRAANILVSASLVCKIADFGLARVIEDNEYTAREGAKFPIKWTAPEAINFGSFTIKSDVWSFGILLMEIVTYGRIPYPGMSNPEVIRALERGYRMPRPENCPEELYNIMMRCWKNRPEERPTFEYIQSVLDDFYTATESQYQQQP
Chain of FGFR1 (P11362 whole entry, looked up): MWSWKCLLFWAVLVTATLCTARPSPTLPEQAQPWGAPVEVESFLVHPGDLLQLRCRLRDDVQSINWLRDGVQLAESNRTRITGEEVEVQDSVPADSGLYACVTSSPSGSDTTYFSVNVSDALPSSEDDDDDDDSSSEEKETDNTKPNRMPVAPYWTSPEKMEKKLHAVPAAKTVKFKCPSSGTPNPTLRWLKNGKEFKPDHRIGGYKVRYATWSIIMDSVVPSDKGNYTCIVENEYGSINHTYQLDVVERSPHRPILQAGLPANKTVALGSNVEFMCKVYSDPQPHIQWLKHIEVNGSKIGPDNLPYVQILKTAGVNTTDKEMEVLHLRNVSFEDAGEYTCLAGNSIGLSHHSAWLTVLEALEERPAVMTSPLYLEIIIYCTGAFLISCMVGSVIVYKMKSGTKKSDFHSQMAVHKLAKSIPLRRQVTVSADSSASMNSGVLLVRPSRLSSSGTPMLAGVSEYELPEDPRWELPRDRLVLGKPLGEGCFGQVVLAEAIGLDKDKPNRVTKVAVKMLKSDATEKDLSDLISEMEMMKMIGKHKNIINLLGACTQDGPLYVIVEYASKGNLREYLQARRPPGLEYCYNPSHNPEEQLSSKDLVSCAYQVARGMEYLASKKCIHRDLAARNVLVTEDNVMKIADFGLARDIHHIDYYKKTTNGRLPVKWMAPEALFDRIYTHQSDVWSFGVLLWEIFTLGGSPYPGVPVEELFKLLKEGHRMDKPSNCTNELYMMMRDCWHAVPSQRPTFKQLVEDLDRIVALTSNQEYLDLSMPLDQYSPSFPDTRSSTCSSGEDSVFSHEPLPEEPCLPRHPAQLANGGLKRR

As to SASSSYSRSRS [SRRM4_Y549_R547S], the phosphorylation enrichment turned out to be 0.482 in [1]; 0.487 in data set [2]; 0.555 in [3]; 0.386 in [4]; 0.447 in [5]; 0.432 in data set [6]. For the same sequence, the phosphorylation enrichment in [7] turned out to be 0.378; in [8], 0.462; in [9], 0.408; in data set [10], 0.46; in data set [11], 0.412; in data set [12], 0.451. Besides, the phosphorylation enrichment in data set [13] is 0.275. Besides, the results for the SH2 binding enrichment in [14], in data set [15] and in data set [16] were 0.967, 0.393 and 0.638, respectively.
As to SDVCMYRKNTF [SYNE2_Y570_I574T_YF], the phosphorylation enrichment in data set [1] came out at 0.904; in data set [2], 0.534; in data set [3], 0.711; in data set [4] it was 0.382; in data set [5], 0.4; in data set [6] it was 0.4. Further, the phosphorylation enrichment in [7] is 0.497; in data set [8], 0.395; in [9], 0.636; in data set [10] it was 0.571; in [11], 0.456; in [12], 0.726. Moreover, the phosphorylation enrichment in data set [13] stood at 0.551. Moreover, the SH2 binding enrichment in data set [14] worked out at 0.787; in data set [15], 0.507; in [16], 0.732.
Turning to SDVSSYLEGQA [GCG_Y110], the phosphorylation enrichment in [1] amounted to 0.938; in data set [2], 0.76; in data set [3], 0.867; in data set [4] it was 0.775; in data set [5], 0.432; in data set [6], 0.474. In addition, the phosphorylation enrichment in data set [7] was 0.456; in [8], 0.447; in data set [9], 0.678; in data set [10], 0.657; in [11], 0.488; in [12] it was 0.769. Further, the phosphorylation enrichment in data set [13] was found to be 0.469. Also, the SH2 binding enrichment in data set [14] amounted to 0.727; in data set [15], 0.41; in data set [16] it was 0.738.
With SEASFYKSLNL [NGEF_Y289_YF], the phosphorylation enrichment in data set [1] turned out to be 1.27; in [2] it was 0.522; in data set [3] it was 0.98; in [4] it was 0.57; in [5], 0.471; in [6] it was 0.505. The phosphorylation enrichment in data set [7] was 0.395; in [8], 0.403; in [9], 0.852; in data set [10] it was 0.692; in data set [11] it was 0.488; in [12], 1.1. Besides, the phosphorylation enrichment in data set [13] amounted to 0.589. Besides, the results for the SH2 binding enrichment in data set [14], in [15] and in [16] were 0.642, 0.401 and 0.535, respectively.
SFDLDYDSVQP [MYC_Y16_N11S_YF]: the phosphorylation enrichment was 1.31 in [1]; 0.911 in [2]; 1.78 in data set [3]; 0.748 in data set [4]; 0.586 in [5]; 0.924 in data set [6]. For the same sequence, the phosphorylation enrichment in data set [7] came to 0.674; in data set [8], 0.833; in data set [9] it was 0.811; in data set [10], 0.749; in data set [11], 0.688; in data set [12] it was 1.3. The phosphorylation enrichment in [13] stood at 0.644. The SH2 binding enrichment amounted to 0.749 in data set [14], 0.441 in [15] and 0.633 in data set [16].
On to SFLSYYTSHVQ [NEFL_Y443_P440L], for which the phosphorylation enrichment in data set [1] worked out at 1.1; in data set [2], 1.01; in [3], 1.01; in data set [4], 0.583; in data set [5], 2.19; in data set [6], 0.936. For the same sequence, the phosphorylation enrichment in [7] was determined as 1.04; in data set [8], 0.585; in [9], 0.828; in [10] it was 1.01; in [11], 0.794; in data set [12] it was 2.1. Besides, in data set [13], the phosphorylation enrichment is 1.26. The SH2 binding enrichment in [14] worked out at 1.17; in [15], 2.51; in [16], 3.81.
As for SGDDGYAKDAK [TENM4_Y1530], the phosphorylation enrichment in [1] worked out at 0.741; in data set [2], 0.623; in [3], 0.836; in [4], 0.494; in [5], 0.386; in [6], 0.409. In addition, the phosphorylation enrichment in data set [7] came out at 0.501; in data set [8], 0.564; in [9] it was 0.456; in [10], 0.562; in data set [11] it was 0.584; in data set [12] it was 0.456. Further, in data set [13], the phosphorylation enrichment was 0.454. Moreover, the SH2 binding enrichment in data set [14] was found to be 0.733; in data set [15], 0.445; in data set [16], 0.577.
As for SGEKPYKCSEC [ZNF543_Y283], the phosphorylation enrichment in data set [1] stood at 0.829; in data set [2] it was 0.502; in data set [3] it was 0.664; in data set [4] it was 0.456; in [5] it was 0.58; in [6], 0.544. Further, the phosphorylation enrichment in data set [7] is 0.535; in data set [8], 0.533; in data set [9], 0.654; in data set [10] it was 0.551; in data set [11], 0.531; in data set [12], 0.765. Further, the phosphorylation enrichment in [13] came to 0.5. Besides, the results for the SH2 binding enrichment in data set [14], in data set [15] and in data set [16] were 1.02, 0.488 and 0.65, respectively.
